Measurements from the supplement of paper PMC10065799, “High-throughput profiling of sequence recognition by tyrosine kinases and SH2 domains using bacterial peptide display” (eLife, 2023).

What was measured:
[1] = test system: AncSZ; assay: phosphorylation enrichment, bacterial display (enrichment ratio); higher = better substrate or ligand; peptides without Tyr show the background
[2] = target: EPHB1 (UniProt P54762); assay: as above
[3] = target: EPHB2 (UniProt P29323); assay: as above
[4] = target: FGFR1 (UniProt P11362); assay: as above
FGFR1, sequence (P11362 whole entry, looked up): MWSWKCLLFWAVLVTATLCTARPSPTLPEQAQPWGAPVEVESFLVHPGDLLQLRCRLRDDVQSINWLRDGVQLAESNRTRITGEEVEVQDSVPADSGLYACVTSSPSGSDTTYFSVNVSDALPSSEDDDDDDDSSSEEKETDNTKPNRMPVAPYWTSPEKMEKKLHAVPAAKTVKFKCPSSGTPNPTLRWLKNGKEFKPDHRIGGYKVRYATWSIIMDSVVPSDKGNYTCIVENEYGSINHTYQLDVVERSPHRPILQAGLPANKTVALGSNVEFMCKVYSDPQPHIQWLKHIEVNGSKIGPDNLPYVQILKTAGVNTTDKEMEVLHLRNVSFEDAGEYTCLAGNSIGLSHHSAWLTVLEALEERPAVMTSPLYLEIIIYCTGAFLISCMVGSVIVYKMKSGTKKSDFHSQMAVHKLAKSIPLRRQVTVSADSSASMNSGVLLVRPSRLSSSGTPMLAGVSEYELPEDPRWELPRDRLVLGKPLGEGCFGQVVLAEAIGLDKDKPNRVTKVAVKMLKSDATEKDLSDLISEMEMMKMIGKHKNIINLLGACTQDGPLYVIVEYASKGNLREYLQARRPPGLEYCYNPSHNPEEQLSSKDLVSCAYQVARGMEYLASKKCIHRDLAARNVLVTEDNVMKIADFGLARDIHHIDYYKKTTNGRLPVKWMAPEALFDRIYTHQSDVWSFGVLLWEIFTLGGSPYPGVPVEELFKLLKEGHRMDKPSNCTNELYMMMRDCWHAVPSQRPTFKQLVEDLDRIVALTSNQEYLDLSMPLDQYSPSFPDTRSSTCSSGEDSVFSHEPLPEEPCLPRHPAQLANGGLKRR

[5] = target: FGFR3 (UniProt P22607); assay: as above
[6] = test system: Fer (mouse); assay: as above
[7] = target: Fes (UniProt P07332); assay: as above
[8] = target: Fyn (UniProt P06241); assay: as above
Fyn, sequence (P06241 whole entry, looked up): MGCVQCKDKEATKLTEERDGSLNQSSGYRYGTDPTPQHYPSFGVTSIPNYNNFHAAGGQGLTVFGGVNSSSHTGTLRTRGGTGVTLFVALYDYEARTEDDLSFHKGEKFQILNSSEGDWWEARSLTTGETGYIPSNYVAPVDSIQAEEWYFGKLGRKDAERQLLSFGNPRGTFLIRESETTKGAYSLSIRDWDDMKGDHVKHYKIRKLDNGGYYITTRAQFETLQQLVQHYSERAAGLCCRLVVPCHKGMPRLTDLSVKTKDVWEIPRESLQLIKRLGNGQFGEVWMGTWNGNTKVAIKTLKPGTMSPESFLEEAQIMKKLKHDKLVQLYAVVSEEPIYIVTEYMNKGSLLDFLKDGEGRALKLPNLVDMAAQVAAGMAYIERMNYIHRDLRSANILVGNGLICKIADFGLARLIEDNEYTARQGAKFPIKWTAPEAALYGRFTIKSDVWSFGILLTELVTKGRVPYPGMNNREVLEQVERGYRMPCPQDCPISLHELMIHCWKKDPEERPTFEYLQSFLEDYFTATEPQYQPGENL

[9] = target: Hck (UniProt P08631); assay: as above
Hck, sequence (P08631 whole entry, looked up): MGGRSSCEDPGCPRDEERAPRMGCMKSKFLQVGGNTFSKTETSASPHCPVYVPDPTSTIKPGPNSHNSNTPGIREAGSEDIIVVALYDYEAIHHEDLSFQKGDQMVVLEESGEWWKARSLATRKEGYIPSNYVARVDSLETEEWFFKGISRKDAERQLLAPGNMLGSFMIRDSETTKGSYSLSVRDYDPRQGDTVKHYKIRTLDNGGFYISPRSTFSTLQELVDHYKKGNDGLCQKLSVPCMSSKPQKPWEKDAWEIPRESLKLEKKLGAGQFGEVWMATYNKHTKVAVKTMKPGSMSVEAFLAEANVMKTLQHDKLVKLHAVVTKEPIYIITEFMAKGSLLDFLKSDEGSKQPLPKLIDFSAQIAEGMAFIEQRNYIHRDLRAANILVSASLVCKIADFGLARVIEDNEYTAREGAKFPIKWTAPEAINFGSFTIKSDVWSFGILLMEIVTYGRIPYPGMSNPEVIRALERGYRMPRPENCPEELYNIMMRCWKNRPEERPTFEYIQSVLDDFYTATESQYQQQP

[10] = target: Jak2 (UniProt O60674); assay: as above
Jak2, sequence (O60674 whole entry, looked up): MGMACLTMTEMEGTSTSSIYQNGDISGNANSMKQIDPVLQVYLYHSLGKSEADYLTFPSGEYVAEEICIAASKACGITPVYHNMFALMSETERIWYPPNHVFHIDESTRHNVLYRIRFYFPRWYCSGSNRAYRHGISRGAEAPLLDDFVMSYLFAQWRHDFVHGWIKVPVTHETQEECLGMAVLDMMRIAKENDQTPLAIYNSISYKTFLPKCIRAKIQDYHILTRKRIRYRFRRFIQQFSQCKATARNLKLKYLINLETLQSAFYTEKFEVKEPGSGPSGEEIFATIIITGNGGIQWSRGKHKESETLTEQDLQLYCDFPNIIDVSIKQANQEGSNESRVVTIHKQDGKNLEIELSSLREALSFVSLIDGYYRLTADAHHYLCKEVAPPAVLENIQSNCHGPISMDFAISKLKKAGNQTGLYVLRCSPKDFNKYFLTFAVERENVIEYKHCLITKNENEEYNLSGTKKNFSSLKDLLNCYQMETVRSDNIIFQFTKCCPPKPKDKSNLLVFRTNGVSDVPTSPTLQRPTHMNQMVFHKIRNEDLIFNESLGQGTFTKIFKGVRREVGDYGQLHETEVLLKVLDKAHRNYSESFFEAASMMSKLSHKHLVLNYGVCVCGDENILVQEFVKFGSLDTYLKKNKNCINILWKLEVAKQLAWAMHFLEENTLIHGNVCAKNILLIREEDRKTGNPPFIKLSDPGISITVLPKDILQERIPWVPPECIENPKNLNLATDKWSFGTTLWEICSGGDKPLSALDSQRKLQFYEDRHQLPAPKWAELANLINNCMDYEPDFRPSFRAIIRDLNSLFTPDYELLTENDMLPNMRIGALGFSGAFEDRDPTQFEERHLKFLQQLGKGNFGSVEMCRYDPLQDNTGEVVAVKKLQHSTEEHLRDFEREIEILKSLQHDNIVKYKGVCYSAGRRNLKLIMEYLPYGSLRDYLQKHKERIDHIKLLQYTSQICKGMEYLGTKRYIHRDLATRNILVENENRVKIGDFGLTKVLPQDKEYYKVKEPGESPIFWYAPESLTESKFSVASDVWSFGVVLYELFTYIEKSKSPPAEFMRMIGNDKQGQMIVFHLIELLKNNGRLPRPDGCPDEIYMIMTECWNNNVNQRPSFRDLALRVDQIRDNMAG

[11] = target: MERTK (UniProt Q12866); assay: as above
MERTK, sequence (Q12866 whole entry, looked up): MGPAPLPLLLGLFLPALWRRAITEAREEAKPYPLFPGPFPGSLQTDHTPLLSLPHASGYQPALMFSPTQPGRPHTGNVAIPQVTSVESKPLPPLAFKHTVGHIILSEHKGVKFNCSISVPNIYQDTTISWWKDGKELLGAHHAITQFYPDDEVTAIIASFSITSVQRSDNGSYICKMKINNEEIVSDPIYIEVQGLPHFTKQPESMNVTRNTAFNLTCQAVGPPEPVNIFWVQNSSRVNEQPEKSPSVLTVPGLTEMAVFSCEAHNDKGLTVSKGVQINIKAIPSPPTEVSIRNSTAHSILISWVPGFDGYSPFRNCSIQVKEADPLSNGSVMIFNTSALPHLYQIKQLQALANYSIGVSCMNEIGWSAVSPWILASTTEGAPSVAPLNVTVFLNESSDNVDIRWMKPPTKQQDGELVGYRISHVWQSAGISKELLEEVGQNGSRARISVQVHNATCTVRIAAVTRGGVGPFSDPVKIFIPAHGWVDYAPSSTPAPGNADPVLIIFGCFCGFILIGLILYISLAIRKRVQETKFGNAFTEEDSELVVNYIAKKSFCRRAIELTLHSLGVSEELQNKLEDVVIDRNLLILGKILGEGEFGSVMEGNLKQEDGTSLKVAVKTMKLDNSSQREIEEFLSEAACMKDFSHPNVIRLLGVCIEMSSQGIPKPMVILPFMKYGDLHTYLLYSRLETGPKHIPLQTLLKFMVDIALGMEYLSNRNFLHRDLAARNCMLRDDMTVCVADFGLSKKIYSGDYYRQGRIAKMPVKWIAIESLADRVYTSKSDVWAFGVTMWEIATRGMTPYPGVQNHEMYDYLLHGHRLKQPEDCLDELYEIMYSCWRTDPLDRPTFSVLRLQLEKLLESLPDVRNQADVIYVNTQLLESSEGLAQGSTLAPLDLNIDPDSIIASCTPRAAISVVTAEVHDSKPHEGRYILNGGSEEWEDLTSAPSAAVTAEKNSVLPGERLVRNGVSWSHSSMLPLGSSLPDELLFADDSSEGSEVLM

[12] = test system: c-Abl (mouse); assay: as above
[13] = test system: c-Src; assay: as above
[14] = target: Grb2 SH2 (UniProt P62993); assay: SH2 binding enrichment of the phosphorylated peptide, bacterial display (enrichment ratio); higher = better substrate or ligand; peptides without Tyr show the background
[15] = target: SHP2-C SH2; assay: as above
[16] = target: c-Src SH2; assay: as above
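Wherever SH2 binding enrichment of the phosphorylated peptide, bacterial display is given: peptide library displayed on the E. coli surface as eCPX fusions, selected cells deep-sequenced, score is each peptide's frequency after selection divided by its frequency in the input.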
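Wherever phosphorylation enrichment, bacterial display is given: 11-residue human phosphosite peptides and single-mutation variants displayed on the E. coli surface, counted by deep sequencing, each peptide's frequency after selection divided by its frequency in the unselected input library; frequency after pTyr selection over input frequency; kinase dosed for 20-30% of maximal phosphorylation in three min.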

EPHB2, sequence (P29323 whole entry, looked up): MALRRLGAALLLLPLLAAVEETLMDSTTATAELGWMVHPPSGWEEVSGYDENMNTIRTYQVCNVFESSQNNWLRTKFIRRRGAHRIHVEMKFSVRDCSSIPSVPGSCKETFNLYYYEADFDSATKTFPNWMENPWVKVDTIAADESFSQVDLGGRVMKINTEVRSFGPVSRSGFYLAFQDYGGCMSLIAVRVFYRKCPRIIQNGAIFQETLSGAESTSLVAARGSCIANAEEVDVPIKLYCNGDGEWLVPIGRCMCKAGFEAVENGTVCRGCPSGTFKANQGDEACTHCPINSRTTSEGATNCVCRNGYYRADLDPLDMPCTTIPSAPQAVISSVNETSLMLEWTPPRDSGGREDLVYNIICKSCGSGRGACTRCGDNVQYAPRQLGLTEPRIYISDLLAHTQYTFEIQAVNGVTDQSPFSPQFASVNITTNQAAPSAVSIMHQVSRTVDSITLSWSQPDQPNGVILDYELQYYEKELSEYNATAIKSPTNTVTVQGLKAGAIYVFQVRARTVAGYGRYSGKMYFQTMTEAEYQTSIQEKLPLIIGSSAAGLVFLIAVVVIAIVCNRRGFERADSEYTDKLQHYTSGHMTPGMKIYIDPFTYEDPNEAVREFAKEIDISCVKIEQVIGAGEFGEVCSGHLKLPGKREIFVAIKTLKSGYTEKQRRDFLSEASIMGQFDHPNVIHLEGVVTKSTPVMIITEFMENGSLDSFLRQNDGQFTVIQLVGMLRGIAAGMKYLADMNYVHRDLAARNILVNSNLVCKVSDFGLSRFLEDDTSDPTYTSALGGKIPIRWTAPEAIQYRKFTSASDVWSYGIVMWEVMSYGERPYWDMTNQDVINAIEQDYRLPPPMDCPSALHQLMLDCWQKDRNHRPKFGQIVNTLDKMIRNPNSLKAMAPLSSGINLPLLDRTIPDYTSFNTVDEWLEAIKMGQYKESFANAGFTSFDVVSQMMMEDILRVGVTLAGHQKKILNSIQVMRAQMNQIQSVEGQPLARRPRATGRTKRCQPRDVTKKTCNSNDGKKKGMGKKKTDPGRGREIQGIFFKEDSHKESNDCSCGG

Row | Sequence | SH2 binding enrichment [14] | SH2 binding enrichment [15] | SH2 binding enrichment [16] | phosphorylation enrichment [1] | phosphorylation enrichment [2] | phosphorylation enrichment [3] | phosphorylation enrichment [4] | phosphorylation enrichment [5] | phosphorylation enrichment [6] | phosphorylation enrichment [7] | phosphorylation enrichment [8] | phosphorylation enrichment [9] | phosphorylation enrichment [10] | phosphorylation enrichment [11] | phosphorylation enrichment [12] | phosphorylation enrichment [13]
1 | SVQIVYKPVDL [MAPT_Y627] | 0.951 | 0.845 | 0.515 | 1.17 | 0.698 | 0.499 | 0.409 | 0.65 | 0.467 | 1.12 | 0.4 | 0.455 | 0.891 | 0.376 | 0.689 | 0.464
2 | FAKTQYPDIFA [CRX_Y63_V66I_YF] | 0.849 | 0.529 | 0.456 | 0.667 | 0.426 | 0.373 | 0.378 | 0.528 | 0.517 | 0.922 | 0.434 | 0.387 | 0.483 | 0.489 | 0.542 | 0.415
3 | IPKTWYSAEQF [CD207_Y217] | 0.876 | 0.914 | 0.574 | 0.855 | 3.19 | 3.04 | 0.494 | 0.538 | 0.448 | 0.939 | 0.522 | 0.542 | 0.681 | 9.16 | 0.526 | 0.615
4 | EVDETYVPKKF [ALB_Y521_E525K] | 1.06 | 0.775 | 0.613 | 0.947 | 0.685 | 0.372 | 0.385 | 0.518 | 0.371 | 0.952 | 0.454 | 0.446 | 1.01 | 0.404 | 0.607 | 0.408
5 | ALAHKYHGGGG [HBB_Y146] | 0.756 | 0.63 | 0.43 | 0.621 | 0.333 | 0.349 | 0.537 | 0.343 | 0.361 | 0.578 | 0.426 | 0.417 | 0.503 | 0.461 | 0.534 | 0.383
6 | TSQSQYSSFRE [CCDC170_Y323_F324S] | 1.1 | 0.779 | 0.663 | 0.604 | 0.51 | 0.77 | 0.63 | 0.531 | 0.523 | 0.626 | 1.37 | 1.14 | 0.687 | 0.57 | 0.607 | 1.88
7 | GRVYVYRLSEQ [ITGAE_Y551] | 1.41 | 11.3 | 1.16 | 0.858 | 0.539 | 0.471 | 0.411 | 0.661 | 0.508 | 1.04 | 0.568 | 0.462 | 0.83 | 0.4 | 0.683 | 0.725
8 | LEQDEYALRSH [HADHB_Y244] | 0.755 | 0.576 | 0.504 | 1.98 | 1.01 | 1.69 | 0.891 | 1.08 | 0.669 | 1.75 | 0.793 | 1.08 | 2.54 | 0.724 | 1.9 | 0.96
9 | FDAHIYEGRVI [PRKCD_Y64] | 0.913 | 0.654 | 0.713 | 0.929 | 0.544 | 0.609 | 0.546 | 0.574 | 2.12 | 0.91 | 1.68 | 4.25 | 0.639 | 0.47 | 0.636 | 2.08

Now from value to sequence, other results behind:

Row | SH2 binding enrichment [14] | SH2 binding enrichment [15] | SH2 binding enrichment [16] | Sequence | phosphorylation enrichment [1] | phosphorylation enrichment [2] | phosphorylation enrichment [3] | phosphorylation enrichment [4] | phosphorylation enrichment [5] | phosphorylation enrichment [6] | phosphorylation enrichment [7] | phosphorylation enrichment [8] | phosphorylation enrichment [9] | phosphorylation enrichment [10] | phosphorylation enrichment [11] | phosphorylation enrichment [12] | phosphorylation enrichment [13]
10 | 1.22 | 0.956 | 0.925 | NTQRPHFKGGG [TYROBP_Y111_Y111H_YF] | 0.447 | 0.378 | 0.632 | 0.318 | 0.443 | 0.293 | 0.735 | 0.286 | 0.407 | 0.553 | 0.353 | 1.01 | 0.448
11 | 1.42 | 2.78 | 4.38 | CTTIHYNYMCT [TP53_Y234_N239T] | 0.936 | 2.71 | 1.02 | 0.899 | 0.817 | 0.915 | 1 | 0.569 | 0.545 | 0.657 | 0.784 | 0.656 | 0.5
12 | 0.745 | 1.4 | 3.37 | PMFHSYVSLPF [PLXNA2_Y293_K289M] | 1.4 | 1.98 | 1.86 | 3.85 | 2.26 | 0.789 | 1.56 | 1.08 | 3.34 | 2.01 | 1.2 | 0.712 | 0.751
13 | 0.923 | 0.589 | 0.465 | REGKIYEFNQV [ZNF665_Y162_H157R_YF] | 0.795 | 0.356 | 0.795 | 0.46 | 0.886 | 14.3 | 0.758 | 4.78 | 1.24 | 0.432 | 2.64 | 0.718 | 2.08
14 | 0.643 | 0.553 | 0.467 | CSEETYRLMLQ [RET_Y981_M980T] | 1.28 | 0.65 | 0.611 | 0.741 | 1.06 | 0.703 | 1.29 | 0.586 | 0.576 | 1.03 | 0.451 | 0.81 | 0.627
15 | 0.958 | 0.761 | 0.518 | LNEQHYGGLTG [PGAM4_Y92_R90Q] | 0.752 | 0.949 | 0.574 | 0.659 | 0.972 | 0.769 | 1.2 | 0.956 | 0.902 | 0.915 | 0.845 | 1.5 | 1.04
16 | 2.45 | 3.18 | 1.75 | KGKLIYLLRDS [NXPE1_Y350_G353R] | 0.719 | 0.455 | 0.447 | 0.428 | 0.599 | 0.492 | 0.964 | 0.49 | 0.599 | 0.692 | 0.443 | 0.666 | 0.516
17 | 0.831 | 0.757 | 0.54 | GDKKAYVRLAP [RPL23A_Y137_E133D] | 0.603 | 0.523 | 0.435 | 0.535 | 0.497 | 0.411 | 0.58 | 0.43 | 0.482 | 0.732 | 0.638 | 0.519 | 0.449
